The data set deals with hnRNP A1, P09651-2. As to the kind of experiment: footprinting.

For “GGAUGUUCUCUUCACUGUGGGAUGAGGUAGUAGGUUGUAUAGUUUUACCCUCACACCCACCACUGGGAGAUAACUAUACAAUCUACUGUCUUUCCUAACGUGAUAGAAAAGUCUGCA [pri-let-7a-1 GGG/CCC]”, the binding result is listed as “no binding”.

The record behind these values is article PMC2923024.
